Numbered stars: 1 amine (or outer) side, 2 acyl side, 3 side chain; on linkers, the order of the positions; unused ones are H or OH. Square brackets hold non-standard residues; d marks the D form. Peptide text beside a SMILES is read from it. * marks the point of attachment. NOTA = O=C(O)CN1CCN(CC(=O)O)CCN(CC(=O)*)CC1; γGlu = O=C(O)[C@H](CCC(=O)[*:2])N[*:1]; Sta = CC(C)C[C@H](N)[C@@H](O)CC(=O)O; AEEA = NCCOCCOCC(=O)O; Aoc = NCCCCCCCC(=O)O; CO = O=C([*:1])[*:2]
Assays:
[1] = Stability in PBS and EDTA challenge; type: physicochemical; conditions: 1 h, ITLC
Method: After 1 h, samples were taken from all solutions and analysed by ITLC.

PC3-pip xenografts = experiment: in vivo; conditions: non-blocked
Method: (§1) Ex vivo experiments and in vivo imaging were carried out using BALB/c nu/nu mice bearing PC3-pip xenografts. All studies were performed according to the guidelines of the Declaration of Helsinki and approved by the Ethics Committee for Animal Research in Uppsala, Sweden (5.8.18-00473/2021. Approved on 26 February 2021).
(§2) There were 4 mice in each group. At 1 and 3 h pi, mice were sacrificed after an intraperitoneal injection of a Ketalar–Rompun solution (20 μL/g body weight) consisting of Ketalar (10 mg/mL) and Rompun (1 mg/mL), followed by heart puncture.

in vivo = conditions: BALB/c nu/nu, mouse, iv, 40 pmol, total radioactivity
Method: as §1, §2

PSMA and GRPR = experiment: In vitro binding specificity (blocking) in PC3-pip cells; type: cell-based, human; conditions: 1 h 37 °C
Method: In vitro experiments were carried out using the PSMA- and GRPR-expressing human prostate carcinoma PC3-pip cell line (obtained from Prof. Martin Pomper, The Johns Hopkins University, Baltimore, MD, USA). Cells (5–7 × 10^5 cells/vial) were seeded 24–48 h before the experiments. All experiments were performed in triplicate.
To block the targets, cells were incubated at room temperature for 15 min with an excess (750 nM/well) of PSMA-11 (to block PSMA) and/or NOTA-PEG2-RM26 (to block GRPR). […] After 1 h, cells were collected, and the radioactive content was measured using an automated gamma counter.

CC(C)C[C@H](NC(=O)C[C@H](O)[C@H](CC(C)C)NC(=O)[C@H](Cc1c[nH]cn1)NC(=O)CNC(=O)[C@@H](NC(=O)[C@H](C)NC(=O)[C@H](Cc1c[nH]c2ccccc12)NC(=O)[C@H](CCC(N)=O)NC(=O)[C@@H](Cc1ccccc1)NC(=O)COCCOCCNC(=O)[C@H](CCCCNC(=O)CN1CCN(CC(=O)O)CCN(CC(=O)O)CC1)NC(=O)[C@H](Cc1ccccc1)NC(=O)CCCCCCCNC(=O)CC[C@H](NC(=O)N[C@@H](CCC(=O)O)C(=O)O)C(=O)O)C(C)C)C(N)=O [[^68Ga]Ga-BQ7812, metal not drawn] ({Glu-CO-γGlu-Aoc}-FK(NOTA)[AEEA][dF]QWAVGH[Sta]L-NH2)
Release of free gallium-68 under EDTA challenge ([1]; 1000-fold molar excess EDTA): minor release | Release of free gallium-68 in PBS ([1]; PBS, room temperature): minor release | Activity uptake in the kidneys at 3 h pi as % of uptake at 1 h pi (PC3-pip xenografts): 26% | Activity uptake in the pancreas at 3 h pi as % of uptake at 1 h pi (PC3-pip xenografts): 11% | Activity uptake in the tumour at 3 h pi as % of uptake at 1 h pi (PC3-pip xenografts): 55% | tissue uptake at 1 h (in vivo; blood): 0.86 ± 0.16 %ID/g | tissue uptake at 3 h (in vivo; blood): 0.16 ± 0.02 %ID/g | tissue uptake at 1 h (in vivo; bone): 0.31 ± 0.06 %ID/g | tissue uptake at 3 h (in vivo; bone): 0.13 ± 0.03 %ID/g | tissue uptake at 1 h (in vivo; kidneys): 45.3 ± 16.6 %ID/g | tissue uptake at 1 h (in vivo; liver): 0.89 ± 0.1 %ID/g | tissue uptake at 3 h (in vivo; liver): 0.57 ± 0.03 %ID/g | tissue uptake at 1 h (in vivo; lungs): 0.86 ± 0.15 %ID/g | tissue uptake at 3 h (in vivo; lungs): 0.2 ± 0.05 %ID/g | tissue uptake at 1 h (in vivo; muscle): 0.21 ± 0.04 %ID/g | tissue uptake at 3 h (in vivo; muscle): 0.05 ± 0.01 %ID/g | tissue uptake at 1 h (in vivo; pancreas): 5.6 ± 0.7 %ID/g | tissue uptake at 3 h (in vivo; pancreas): 0.6 ± 0.16 %ID/g | tissue uptake at 1 h (in vivo; remaining organs (other than tumour, kidneys, pancreas)): ≤ 1 %ID/g | tissue uptake at 1 h (in vivo; salivary glands): 0.44 ± 0.07 %ID/g | tissue uptake at 3 h (in vivo; salivary glands): 0.14 ± 0.03 %ID/g | tissue uptake at 1 h (in vivo; small intestine): 1.33 ± 0.31 %ID/g | tissue uptake at 3 h (in vivo; small intestine): 0.2 ± 0.02 %ID/g | tissue uptake at 1 h (in vivo; spleen): 0.92 ± 0.16 %ID/g | tissue uptake at 3 h (in vivo; spleen): 0.33 ± 0.03 %ID/g | tissue uptake at 3 h (in vivo; tumour (PC3-pip xenograft)): 5.68 ± 0.62 %ID/g | tissue to tissue ratio at 3 h (in vivo; tumour (PC3-pip) / bone): 47 ± 13 | tissue to tissue ratio at 3 h (in vivo; tumour (PC3-pip) / kidneys): 0.53 ± 0.07 | tissue to tissue ratio at 3 h (in vivo; tumour (PC3-pip) / liver): 9.9 ± 0.8 | tissue to tissue ratio at 3 h (in vivo; tumour (PC3-pip) / muscle): 116 ± 22 | tissue to tissue ratio at 3 h (in vivo; tumour (PC3-pip) / pancreas): 10 ± 4 | tissue to tissue ratio at 3 h (in vivo; tumour (PC3-pip) / small intestine): 28 ± 4 | tissue to tissue ratio at 3 h (in vivo; tumour (PC3-pip) / spleen): 18 ± 3 | tissue uptake at 1 h (in vivo; tumour (PC3-pip)): 10.4 ± 0.97 %ID/g | tissue uptake at 3 h (in vivo; tumour (PC3-pip)): 5.7 ± 0.6 %ID/g | tissue to tissue ratio at 1 h (in vivo; tumour / blood): 13 ± 3 | tissue to tissue ratio at 3 h (in vivo; tumour / blood): 35 ± 4 | tissue to tissue ratio at 1 h (in vivo; tumour / bone): 35 ± 8 | tissue to tissue ratio at 1 h (in vivo; tumour / kidneys): 0.3 ± 0.1 | tissue to tissue ratio at 1 h (in vivo; tumour / liver): 11.8 ± 1 | tissue to tissue ratio at 1 h (in vivo; tumour / lungs): 12 ± 3 | tissue to tissue ratio at 3 h (in vivo; tumour / lungs): 29 ± 5 | tissue to tissue ratio at 1 h (in vivo; tumour / muscle): 52 ± 12 | tissue to tissue ratio at 1 h (in vivo; tumour / pancreas): 1.9 ± 0.2 | tissue to tissue ratio at 1 h (in vivo; tumour / salivary glands): 24 ± 3 | tissue to tissue ratio at 3 h (in vivo; tumour / salivary glands): 40 ± 8 | tissue to tissue ratio at 1 h (in vivo; tumour / small intestine): 8 ± 2 | tissue to tissue ratio at 1 h (in vivo; tumour / spleen): 12 ± 3 | Uptake in cells pre-saturated with both blocking agents compared to either one (PSMA and GRPR; 20 nM tracer): significantly lower | Activity uptake after pre-saturation of GRPR compared to naive cells (PSMA and GRPR; excess NOTA-PEG2-RM26, 20 nM tracer, triplicate, p < 0.05): significant decrease | Activity uptake after pre-saturation of PSMA compared to naive cells (PSMA and GRPR; excess PSMA-11, 20 nM tracer, triplicate, p < 0.05): significant decrease | Activity uptake after pre-saturation of PSMA and GRPR compared to naive cells (PSMA and GRPR; excess PSMA-11 and NOTA-PEG2-RM26, 20 nM tracer, triplicate, p < 0.05): significant decrease
